US20180155451A1 (published 2018)

T1: FcγRIIa R (human, UniProt P12318 34-217)
T1 construct: extracellular domain; also called FcgRIIa R type; 2aR
T1 sequence (looked up): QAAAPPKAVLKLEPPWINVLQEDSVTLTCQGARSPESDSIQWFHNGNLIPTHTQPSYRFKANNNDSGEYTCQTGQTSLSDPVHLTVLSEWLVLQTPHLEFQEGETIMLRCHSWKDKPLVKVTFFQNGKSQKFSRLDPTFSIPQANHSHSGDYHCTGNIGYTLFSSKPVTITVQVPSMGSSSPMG

T2: FcγRIIb (human, UniProt P31994 43-217)
T2 construct: extracellular domain; also called FcgRIIb; 2b
T2 sequence (looked up): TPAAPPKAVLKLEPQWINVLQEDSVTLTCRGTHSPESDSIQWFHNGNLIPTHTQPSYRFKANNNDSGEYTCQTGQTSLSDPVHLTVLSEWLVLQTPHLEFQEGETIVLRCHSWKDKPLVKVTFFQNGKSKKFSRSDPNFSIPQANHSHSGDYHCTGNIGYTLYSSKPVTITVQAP

B1: GpH7-A5/GpH7-B3 variant D265_11K/GpL16-k0 (antibody, human IgG1, kappa)
heavy 1: not shown
heavy 2: not shown
light: DIVMTQSPLSLPVTPGEPASISCQASESLVHSNRNTYLHWYLQKPGQSPQLLIYKVSNRFSGVPDRFSGSGSGTDFTLKISRVEAEDVGVYYCSQNTHVPPTFGQGTKVEIERTVAAPSVFIFPPSDEQLKSGTASVVCLLNNFYPREAKVQWKVDNALQSGNSQESVTEQDSKDSTYSLSSTLTLSKADYEKHKVYACEVTHQGLSSPVTKSFNRGEC
notes: heterodimerized antibody, mutation in the GpH7-B3 chain only; also called He Ab
B2: GpH7-B3 variant T335_20W/GpL16-k0 (antibody, human IgG1, kappa)
heavy: not shown
light: B1 light
notes: also called Ho Ab T335_20W
B3: GpH7-B3 variant P238_09D/GpL16-k0 (antibody, human IgG1, kappa)
heavy: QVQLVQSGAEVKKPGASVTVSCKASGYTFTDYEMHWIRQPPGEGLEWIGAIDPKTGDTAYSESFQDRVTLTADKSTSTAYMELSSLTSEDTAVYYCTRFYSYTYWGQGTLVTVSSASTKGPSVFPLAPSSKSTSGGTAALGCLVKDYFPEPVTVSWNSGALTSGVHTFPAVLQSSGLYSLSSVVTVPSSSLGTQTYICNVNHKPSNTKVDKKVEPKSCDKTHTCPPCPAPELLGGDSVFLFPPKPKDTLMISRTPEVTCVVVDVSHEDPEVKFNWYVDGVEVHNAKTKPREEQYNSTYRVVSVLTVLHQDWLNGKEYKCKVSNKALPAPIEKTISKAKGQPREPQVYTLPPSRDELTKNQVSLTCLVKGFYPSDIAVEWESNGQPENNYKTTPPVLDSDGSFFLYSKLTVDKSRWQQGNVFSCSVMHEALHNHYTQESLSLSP
light: B1 light
notes: also called Ho Ab P238_09D
B4: GpH7-B17/GpL16-k0 (antibody, human IgG1, kappa)
heavy: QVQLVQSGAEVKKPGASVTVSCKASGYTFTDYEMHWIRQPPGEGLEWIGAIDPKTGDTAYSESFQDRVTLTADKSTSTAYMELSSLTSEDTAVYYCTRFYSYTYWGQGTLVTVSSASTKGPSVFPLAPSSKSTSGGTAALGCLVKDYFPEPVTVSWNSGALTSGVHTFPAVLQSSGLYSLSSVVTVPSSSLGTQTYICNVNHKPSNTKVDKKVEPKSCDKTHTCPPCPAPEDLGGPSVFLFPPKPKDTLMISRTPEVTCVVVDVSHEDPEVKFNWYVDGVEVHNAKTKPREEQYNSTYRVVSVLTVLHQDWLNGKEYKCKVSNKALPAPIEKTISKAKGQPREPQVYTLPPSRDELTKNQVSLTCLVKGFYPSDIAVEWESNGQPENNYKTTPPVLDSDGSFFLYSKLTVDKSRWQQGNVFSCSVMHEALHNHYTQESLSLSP
light: B1 light
notes: also called Ho Ab L234_09D; GpH7-B3 variant L234_09D/GpL16-k0
B5: GpH7-B3 variant L234_04F/GpL16-k0 (antibody, human IgG1, kappa)
heavy: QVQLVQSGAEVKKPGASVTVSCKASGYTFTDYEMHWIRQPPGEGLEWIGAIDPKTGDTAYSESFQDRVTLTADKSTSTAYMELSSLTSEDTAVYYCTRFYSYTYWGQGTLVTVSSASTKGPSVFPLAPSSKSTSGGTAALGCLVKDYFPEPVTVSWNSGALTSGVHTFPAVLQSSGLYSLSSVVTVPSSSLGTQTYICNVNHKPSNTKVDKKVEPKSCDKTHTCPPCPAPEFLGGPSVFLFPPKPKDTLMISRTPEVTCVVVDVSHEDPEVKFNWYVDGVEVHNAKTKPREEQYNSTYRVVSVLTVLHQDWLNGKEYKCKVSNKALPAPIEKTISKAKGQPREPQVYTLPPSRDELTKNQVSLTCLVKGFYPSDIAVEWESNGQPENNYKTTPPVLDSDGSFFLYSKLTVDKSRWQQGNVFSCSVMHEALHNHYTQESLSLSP
light: B1 light
notes: also called Ho Ab L234_04F
B6: GpH7-B3 variant T335_19Q/GpL16-k0 (antibody, human IgG1, kappa)
heavy: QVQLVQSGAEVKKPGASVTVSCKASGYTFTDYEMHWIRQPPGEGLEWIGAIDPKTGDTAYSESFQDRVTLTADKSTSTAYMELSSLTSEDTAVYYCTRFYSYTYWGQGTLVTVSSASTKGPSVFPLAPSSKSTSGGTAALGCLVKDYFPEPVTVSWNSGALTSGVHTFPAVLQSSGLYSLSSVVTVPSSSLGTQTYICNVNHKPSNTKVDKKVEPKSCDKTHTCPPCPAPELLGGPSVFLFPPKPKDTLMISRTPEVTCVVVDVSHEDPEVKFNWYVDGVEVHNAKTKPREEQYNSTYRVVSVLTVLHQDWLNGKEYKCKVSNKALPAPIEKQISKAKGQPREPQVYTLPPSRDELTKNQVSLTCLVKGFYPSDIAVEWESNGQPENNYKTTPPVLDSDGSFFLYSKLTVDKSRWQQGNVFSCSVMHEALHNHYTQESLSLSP
light: B1 light
notes: also called Ho Ab T335_19Q
B7: GpH7-B3 variant P271_01G/GpL16-k0 (antibody, human IgG1, kappa)
heavy: not shown
light: B1 light
notes: also called Ho Ab P271_01G
B8: GpH7-B3 variant S298_14T/GpL16-k0 (antibody, human IgG1, kappa)
heavy: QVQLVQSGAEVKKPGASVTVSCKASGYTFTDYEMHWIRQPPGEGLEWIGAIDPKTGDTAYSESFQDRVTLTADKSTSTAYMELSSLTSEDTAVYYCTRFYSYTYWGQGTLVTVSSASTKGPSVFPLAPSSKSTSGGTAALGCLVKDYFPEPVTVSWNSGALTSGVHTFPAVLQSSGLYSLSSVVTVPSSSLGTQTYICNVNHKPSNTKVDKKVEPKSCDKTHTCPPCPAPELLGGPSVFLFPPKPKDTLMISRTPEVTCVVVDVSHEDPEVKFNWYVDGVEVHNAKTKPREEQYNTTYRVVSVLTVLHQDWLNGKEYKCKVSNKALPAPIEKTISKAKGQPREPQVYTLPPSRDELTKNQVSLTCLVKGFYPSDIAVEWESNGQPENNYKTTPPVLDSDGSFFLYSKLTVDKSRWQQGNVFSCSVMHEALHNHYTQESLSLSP
light: B1 light
notes: also called Ho Ab S298_14T
B9: GpH7-B3 variant T335_13S/GpL16-k0 (antibody, human IgG1, kappa)
heavy: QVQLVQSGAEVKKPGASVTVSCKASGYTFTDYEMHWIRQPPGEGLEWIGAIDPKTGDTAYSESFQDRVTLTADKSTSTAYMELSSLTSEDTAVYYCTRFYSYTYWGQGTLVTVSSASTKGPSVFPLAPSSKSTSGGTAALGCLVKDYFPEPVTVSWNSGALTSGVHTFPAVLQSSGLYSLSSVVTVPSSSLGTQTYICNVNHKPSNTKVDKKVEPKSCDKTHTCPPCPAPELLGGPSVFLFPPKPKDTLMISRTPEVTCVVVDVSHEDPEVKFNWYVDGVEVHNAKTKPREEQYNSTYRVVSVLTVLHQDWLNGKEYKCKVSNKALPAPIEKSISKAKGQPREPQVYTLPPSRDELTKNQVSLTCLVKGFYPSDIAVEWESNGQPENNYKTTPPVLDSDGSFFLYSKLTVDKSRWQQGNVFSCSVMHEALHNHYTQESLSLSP
light: B1 light
notes: also called Ho Ab T335_13S
B10: GpH7-B3 variant I336_08L/GpL16-k0 (antibody, human IgG1, kappa)
heavy: not shown
light: B1 light
notes: also called Ho Ab I336_08L
B11: GpH7-B3 variant Q295_14T/GpL16-k0 (antibody, human IgG1, kappa)
heavy: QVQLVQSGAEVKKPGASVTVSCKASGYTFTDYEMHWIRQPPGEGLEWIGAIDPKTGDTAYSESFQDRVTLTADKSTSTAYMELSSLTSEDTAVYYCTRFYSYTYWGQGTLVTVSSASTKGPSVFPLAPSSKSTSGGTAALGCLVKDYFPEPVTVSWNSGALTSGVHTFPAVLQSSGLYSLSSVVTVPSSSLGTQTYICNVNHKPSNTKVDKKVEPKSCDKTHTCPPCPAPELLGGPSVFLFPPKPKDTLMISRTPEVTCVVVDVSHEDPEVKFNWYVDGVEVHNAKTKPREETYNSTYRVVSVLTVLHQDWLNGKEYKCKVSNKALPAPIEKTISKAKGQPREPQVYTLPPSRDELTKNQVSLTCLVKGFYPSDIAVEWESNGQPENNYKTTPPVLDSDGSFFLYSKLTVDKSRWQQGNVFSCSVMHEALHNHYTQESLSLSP
light: B1 light
notes: also called Ho Ab Q295_14T
B12: GpH7-B3 variant I336_03V/GpL16-k0 (antibody, human IgG1, kappa)
heavy: not shown
light: B1 light
notes: also called Ho Ab I336_03V
B13: GpH7-B3-01-15Y/GpL16-k0 (antibody, human IgG1, kappa)
heavy: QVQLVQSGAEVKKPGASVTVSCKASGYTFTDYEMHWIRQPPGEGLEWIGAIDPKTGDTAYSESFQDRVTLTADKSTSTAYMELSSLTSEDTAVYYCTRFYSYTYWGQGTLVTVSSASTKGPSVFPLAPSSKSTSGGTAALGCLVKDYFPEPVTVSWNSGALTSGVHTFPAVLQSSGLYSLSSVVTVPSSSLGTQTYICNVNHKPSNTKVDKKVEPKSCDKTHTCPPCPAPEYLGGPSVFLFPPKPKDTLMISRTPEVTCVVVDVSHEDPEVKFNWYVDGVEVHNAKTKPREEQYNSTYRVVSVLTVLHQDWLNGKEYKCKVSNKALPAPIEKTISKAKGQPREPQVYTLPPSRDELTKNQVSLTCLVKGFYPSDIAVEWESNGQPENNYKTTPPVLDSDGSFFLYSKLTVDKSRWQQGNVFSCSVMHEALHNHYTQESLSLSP
light: B1 light
notes: also called Ho Ab L234_15Y; GpH7-B3 variant L234_15Y/GpL16-k0
B14: GpH7-B3 variant S267_02A/GpL16-k0 (antibody, human IgG1, kappa)
heavy: not shown
light: B1 light
notes: also called Ho Ab S267_02A
B15: GpH7-B3 variant I336_06M/GpL16-k0 (antibody, human IgG1, kappa)
heavy: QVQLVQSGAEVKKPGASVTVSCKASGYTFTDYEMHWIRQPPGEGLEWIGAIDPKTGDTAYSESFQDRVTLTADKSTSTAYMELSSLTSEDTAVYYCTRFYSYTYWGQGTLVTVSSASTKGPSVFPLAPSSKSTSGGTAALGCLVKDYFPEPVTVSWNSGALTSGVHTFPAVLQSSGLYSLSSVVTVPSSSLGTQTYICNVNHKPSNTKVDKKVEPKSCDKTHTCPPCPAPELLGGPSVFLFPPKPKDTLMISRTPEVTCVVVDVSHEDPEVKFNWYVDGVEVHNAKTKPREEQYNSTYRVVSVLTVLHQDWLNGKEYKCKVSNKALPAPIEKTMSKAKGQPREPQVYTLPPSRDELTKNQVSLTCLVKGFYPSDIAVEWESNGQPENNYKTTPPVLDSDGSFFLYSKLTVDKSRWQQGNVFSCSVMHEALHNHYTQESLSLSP
light: B1 light
notes: also called Ho Ab I336_06M
B16: GpH7-B3 variant S337_10E/GpL16-k0 (antibody, human IgG1, kappa)
heavy: not shown
light: B1 light
notes: also called Ho Ab S337_10E
B17: GpH7-B3 variant S337_09D/GpL16-k0 (antibody, human IgG1, kappa)
heavy: not shown
light: B1 light
notes: also called Ho Ab S337_09D
B18: GpH7-B16/GpL16-k0 (antibody, human IgG1, kappa)
heavy: not shown
light: B1 light
notes: also called Ho Ab L234_10E; GpH7-B3 variant L234_10E/GpL16-k0
B19: GpH7-B3 variant L234_20W/GpL16-k0 (antibody, human IgG1, kappa)
heavy: not shown
light: B1 light
notes: also called Ho Ab L234_20W
B20: GpH7-B3 variant S324_16H/GpL16-k0 (antibody, human IgG1, kappa)
heavy: not shown
light: B1 light
notes: also called Ho Ab S324_16H
B21: GpH7-A5/GpH7-B3 variant D265_14T/GpL16-k0 (antibody, human IgG1, kappa)
heavy 1: not shown
heavy 2: not shown
light: B1 light
notes: as for B1
B22: GpH7-A5/GpH7-B3 variant D265_13S/GpL16-k0 (antibody, human IgG1, kappa)
heavy 1: not shown
heavy 2: not shown
light: B1 light
notes: as for B1
B23: GpH7-B3 variant S337_14T/GpL16-k0 (antibody, human IgG1, kappa)
heavy: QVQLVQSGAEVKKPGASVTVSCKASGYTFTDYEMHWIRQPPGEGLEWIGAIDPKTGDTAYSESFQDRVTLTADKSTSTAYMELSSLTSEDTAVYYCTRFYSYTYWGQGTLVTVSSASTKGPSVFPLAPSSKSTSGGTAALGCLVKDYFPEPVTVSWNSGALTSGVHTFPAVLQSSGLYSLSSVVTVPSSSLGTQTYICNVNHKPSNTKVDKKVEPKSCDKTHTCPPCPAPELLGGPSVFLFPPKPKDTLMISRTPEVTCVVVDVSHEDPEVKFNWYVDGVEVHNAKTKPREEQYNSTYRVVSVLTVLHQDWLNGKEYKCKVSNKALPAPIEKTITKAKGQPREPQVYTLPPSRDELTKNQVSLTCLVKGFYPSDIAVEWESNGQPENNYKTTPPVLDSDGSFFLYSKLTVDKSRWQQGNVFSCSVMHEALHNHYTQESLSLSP
light: B1 light
notes: also called Ho Ab S337_14T
B24: GpH7-B3 variant S324_15Y/GpL16-k0 (antibody, human IgG1, kappa)
heavy: not shown
light: B1 light
notes: also called Ho Ab S324_15Y

Experiments:
[1] = target: T1, FcγRIIa R; experiment: SPR; He/Con_2aR divided by He/Con_2b (FcγRIIb as reference)
Experimental: (§1) The heterodimerized antibodies He Abs in which one of the H chains was introduced with an alteration were assayed for their binding activities to each activating FcγR and inhibitory FcγR according to the method described in Example 4. […] The activating FcγRs in FIGS. 26, 27, 28, and 29 are FcγRIa, FcγRIIa (R), FcγRIIa (H), and FcγRIIIa, respectively.
(§2) Analysis of interaction between objective antibody and the FcγR was carried out using Biacore T100 (GE Healthcare). HBS-EP+ (GE Healthcare) was used as the running buffer, and the measurement temperature was set to 25° C. Chips produced by immobilizing the antigen peptide by the amine coupling method to a Series S Sencor Chip CM5 (GE Healthcare), or alternatively, chips produced by allowing preliminarily biotinylated antigen peptides to interact with and immobilize onto a Series S Sensor Chip SA (certified) (GE Healthcare) were used. Antibodies of interest were captured onto an antigen peptide-immobilized chip, and allowed to interact to each FcγR diluted with running buffer. To regenerate and repeatedly use the chip, the antibodies captured on the chip were washed off by reacting 10 mM glycine-HCl, pH 1.5.

[2] = target: T1, FcγRIIa R; experiment: SPR (Biacore), antibody captured, FcγR as analyte; relative binding
Experimental: as §1, §2

[3] = target: T2, FcγRIIb; experiment: as above
Experimental: as §1, §2

[4] = target: T3, FcγRIIIa extracellular domain with C-terminal His tag (human, UniProt P08637 17-208); experiment: SPR relative binding; GpH7-B3/GpL16-k0 = 100
T3 construct: extracellular domain; also called FcgRIIIa; 3a; not shown: His tag at the C terminus
Experimental: as §2
The FcγR-binding activity of each antibody was assessed primarily using as an indicator the FcγR-binding activity and dissociation constant for FcγR.

T3 sequence (P08637 17-208): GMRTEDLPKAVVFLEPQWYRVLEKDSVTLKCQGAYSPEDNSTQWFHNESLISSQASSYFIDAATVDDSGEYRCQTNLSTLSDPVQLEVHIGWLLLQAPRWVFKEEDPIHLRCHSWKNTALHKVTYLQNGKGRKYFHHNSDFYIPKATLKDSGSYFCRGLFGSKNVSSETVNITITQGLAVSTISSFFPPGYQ

Binder | Ho/Con_3a [4] | also measured
B1 |  | IIaR/IIb (He_2aR/2b) [1]: 2.26 ratio; He/Con_2aR (IIaR binding) [2]: 33.7 % of GpH7-A5/GpH7-B3/GpL16-k0 (=100); He/Con_2b (IIb binding) [3]: 14.9 % of GpH7-A5/GpH7-B3/GpL16-k0 (=100)
B2 | 91.8 % of control | 
B3 | -0.1 % of control | 
B4 | 52.8 % of control | 
B5 | 49.9 % of control | 
B6 | 97.7 % of control | 
B7 | 88 % of control | 
B8 | 107 % of control | 
B9 | 97.6 % of control | 
B10 | 95.8 % of control | 
B11 | 108 % of control | 
B12 | 110 % of control | 
B13 | 64.7 % of control | 
B14 | 145 % of control | 
B15 | 107 % of control | 
B16 | 100 % of control | 
B17 | 106 % of control | 
B18 | 64.7 % of control | 
B19 | 37.1 % of control | 
B20 | 103 % of control | 
B21 |  | IIaR/IIb (He_2aR/2b) [1]: 1.61 ratio; He/Con_2aR (IIaR binding) [2]: 25.8 % of GpH7-A5/GpH7-B3/GpL16-k0 (=100); He/Con_2b (IIb binding) [3]: 16 % of GpH7-A5/GpH7-B3/GpL16-k0 (=100)
B22 |  | IIaR/IIb (He_2aR/2b) [1]: 1.81 ratio; He/Con_2aR (IIaR binding) [2]: 20.5 % of GpH7-A5/GpH7-B3/GpL16-k0 (=100); He/Con_2b (IIb binding) [3]: 11.3 % of GpH7-A5/GpH7-B3/GpL16-k0 (=100)
B23 | 97.2 % of control | 
B24 | 100 % of control | 
